Values quoted from earlier work in paper PMC9897510.

Experiments:
FhuA (Escherichia coli) = FhuA (Escherichia coli) (UniProt P06971)
FOXM1c (Homo sapiens) = FOXM1c (Homo sapiens) (UniProt Q08050)
FOXM1b (Homo sapiens) = FOXM1b (Homo sapiens) (UniProt Q08050)
[1] = target: atrial natriuretic factor receptor (UniProt P16066)
Chain of UniProt P16066 (P16066 33-1061): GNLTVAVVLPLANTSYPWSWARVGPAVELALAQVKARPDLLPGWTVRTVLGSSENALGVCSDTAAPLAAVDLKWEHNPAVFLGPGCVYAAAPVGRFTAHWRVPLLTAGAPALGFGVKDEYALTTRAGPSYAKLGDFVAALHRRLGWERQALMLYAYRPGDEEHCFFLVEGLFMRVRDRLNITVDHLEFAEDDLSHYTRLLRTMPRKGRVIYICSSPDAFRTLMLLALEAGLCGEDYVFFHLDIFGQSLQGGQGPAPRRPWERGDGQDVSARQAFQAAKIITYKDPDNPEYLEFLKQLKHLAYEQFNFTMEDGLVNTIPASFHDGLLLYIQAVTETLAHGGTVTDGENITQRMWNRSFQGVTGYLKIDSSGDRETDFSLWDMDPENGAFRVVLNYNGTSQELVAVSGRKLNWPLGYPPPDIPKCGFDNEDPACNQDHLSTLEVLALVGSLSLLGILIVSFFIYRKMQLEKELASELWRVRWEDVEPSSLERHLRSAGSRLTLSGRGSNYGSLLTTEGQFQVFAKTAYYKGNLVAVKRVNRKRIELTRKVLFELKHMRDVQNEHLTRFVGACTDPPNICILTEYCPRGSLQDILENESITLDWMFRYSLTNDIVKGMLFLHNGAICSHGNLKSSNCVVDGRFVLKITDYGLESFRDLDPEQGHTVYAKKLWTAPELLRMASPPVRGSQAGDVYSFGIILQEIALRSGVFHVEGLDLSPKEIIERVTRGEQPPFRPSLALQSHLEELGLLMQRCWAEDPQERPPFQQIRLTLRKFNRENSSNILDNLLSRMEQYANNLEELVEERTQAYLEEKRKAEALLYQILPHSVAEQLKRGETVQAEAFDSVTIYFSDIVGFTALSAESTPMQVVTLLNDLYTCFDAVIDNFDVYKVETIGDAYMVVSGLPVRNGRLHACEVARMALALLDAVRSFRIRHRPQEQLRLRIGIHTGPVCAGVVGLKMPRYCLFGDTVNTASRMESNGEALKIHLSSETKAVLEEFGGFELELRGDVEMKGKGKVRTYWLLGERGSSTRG

Chain of UniProt P06971 (P06971 34-747): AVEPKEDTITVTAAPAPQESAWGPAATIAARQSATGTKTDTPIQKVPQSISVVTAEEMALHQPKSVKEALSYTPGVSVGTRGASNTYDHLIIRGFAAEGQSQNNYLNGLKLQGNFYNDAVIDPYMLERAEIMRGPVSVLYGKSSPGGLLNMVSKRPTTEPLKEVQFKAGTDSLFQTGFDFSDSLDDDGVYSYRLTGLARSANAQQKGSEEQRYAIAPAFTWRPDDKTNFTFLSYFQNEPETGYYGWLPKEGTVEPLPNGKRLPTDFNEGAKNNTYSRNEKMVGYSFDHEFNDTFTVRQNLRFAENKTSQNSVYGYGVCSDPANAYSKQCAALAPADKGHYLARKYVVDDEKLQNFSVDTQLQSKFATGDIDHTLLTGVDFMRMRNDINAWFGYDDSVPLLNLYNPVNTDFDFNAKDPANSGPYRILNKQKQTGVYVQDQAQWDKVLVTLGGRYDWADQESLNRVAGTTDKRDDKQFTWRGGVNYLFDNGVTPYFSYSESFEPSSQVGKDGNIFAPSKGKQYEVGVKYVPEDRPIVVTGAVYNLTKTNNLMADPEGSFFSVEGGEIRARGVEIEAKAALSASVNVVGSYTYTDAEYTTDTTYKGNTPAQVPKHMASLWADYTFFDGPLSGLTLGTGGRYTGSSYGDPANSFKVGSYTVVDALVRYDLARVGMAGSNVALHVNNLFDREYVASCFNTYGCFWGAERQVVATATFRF

In the case of Microcin J25 (from UniProt Q9X2V7), the Kd (FhuA (Escherichia coli)) is given as 1.2 µM.

For thiostrepton (from UniProt P0C8P8), the Ki (FOXM1c (Homo sapiens)) is given as 11 µM and the Ki (FOXM1b (Homo sapiens)) is given as 31 µM.

For anantin (from UniProt Q7M0J9), the Kd [1] is given as 0.6 µM.
